Laboratory results from patent publication US20250325630A1, “HOMODIMER FUSION PROTEINS FOR TREATING ATOPIC DERMATITIS” (Intervet Inc., priority 2021, published 2025).

T1: canine IL-4 (canine, UniProt O77762 25-132, biotin-labeled in the Octet assay (site not stated))
T1 construct: Biotin-labeled and loaded on SA biosensors for the kinetics; unlabeled recombinant protein in the DH82 cell assay; also called cIL-4; canine Interleukin-4
T1 sequence (looked up): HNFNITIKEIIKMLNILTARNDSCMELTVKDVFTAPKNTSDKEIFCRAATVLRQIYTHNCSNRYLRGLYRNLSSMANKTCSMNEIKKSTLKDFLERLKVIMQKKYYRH

T2: canine IL-13 (canine, UniProt Q9N0W9 19-131, limits assumed, biotin-labeled in the Octet assay (site not stated))
T2 construct: Biotin-labeled and loaded on SA biosensors for the kinetics; unlabeled in the DH82 cell assay; also called cIL-13; canine Interleukin-13
T2 sequence (looked up): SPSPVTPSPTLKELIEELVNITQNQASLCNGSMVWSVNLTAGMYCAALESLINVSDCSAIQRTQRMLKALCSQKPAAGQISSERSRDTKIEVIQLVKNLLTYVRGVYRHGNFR

B1: cIL-4Rα-cIgGB-Fc (Fc fusion)
chain: VKVLHEPSCFSDYISTSVCQWKMDHPTNCSAELRLSYQLDFMGSENHTCVPENREDSVCVCSMPIDDAVEADVYQLDLWAGQQLLWSGSFQPSKHVKPRTPGNLTVHPNISHTWLLMWTNPYPTENHLHSELTYMVNVSNDNDPEDFKVYNVTYMGPTLRLAASTLKSGASYSARVRAWAQTYNSTWSDWSPSTTWLNYYEPWEQHLPPKRENGRVPRPPDCPKCPAPEMLGGPSVFIFPPKPKDTLLIARTPEVTCVVVDLDPEDPEVQISWFVDGKQMQTAKTQPREEQFNGTYRVVSVLPIGHQDWLKGKQFTCKVNNKALPSPIERTISKARGQAHQPSVYVLPPSREELSKNTVSLTCLIKDFFPPDIDVEWQSNGQQEPESKYRTTPPQLDEDGSYFLYSKLSVDKSRWQRGDTFICAVMHEALHNHYTQESLSHSPGK
notes: Homodimer held by hinge disulfides; made in CHO cells, purified on protein A; also called cIL-4Rα-cFc; cIL4Rα-cFc
B2: cIL-4Rα-cIgGB-Fc-H (Fc fusion)
chain: VKVLHEPSCFSDYISTSVCQWKMDHPTNCSAELRLSYQLDFMGSENHTCVPENREDSVCVCSMPIDDAVEADVYQLDLWAGQQLLWSGSFQPSKHVKPRTPGNLTVHPNISHTWLLMWTNPYPTENHLHSELTYMVNVSNDNDPEDFKVYNVTYMGPTLRLAASTLKSGASYSARVRAWAQTYNSTWSDWSPSTTWLNYYEPWEQHLPPKRENGRVPRPPDCPKCPAPEMLGGPSVFIFPPKPKDTLLIARTPEVTCVVVDLDPEDPEVQISWFVDGKQMQTAKTQPREEQFNGTYRVVSVLPIGHQDWLKGKQFTCKVNNKALPSPIERTISKARGQAHQPSVYVLPPSREELSKNTVSLTCLIKDFFPPDIDVEWQSNGQQEPESKYRTTPPQLDEDGSYFLYSKLSVDKSRWQRGDTFICAVMHEALHHHYTQESLSHSPGK
notes: Homodimer; also called cIL-4Rα-cFc-H; cIL-4Rα-cFc-NH
B3: cIL-4Rα-cIgGB-Fc-YTE (Fc fusion)
chain: VKVLHEPSCFSDYISTSVCQWKMDHPTNCSAELRLSYQLDFMGSENHTCVPENREDSVCVCSMPIDDAVEADVYQLDLWAGQQLLWSGSFQPSKHVKPRTPGNLTVHPNISHTWLLMWTNPYPTENHLHSELTYMVNVSNDNDPEDFKVYNVTYMGPTLRLAASTLKSGASYSARVRAWAQTYNSTWSDWSPSTTWLNYYEPWEQHLPPKRENGRVPRPPDCPKCPAPEMLGGPSVFIFPPKPKDTLYITREPEVTCVVVDLDPEDPEVQISWFVDGKQMQTAKTQPREEQFNGTYRVVSVLPIGHQDWLKGKQFTCKVNNKALPSPIERTISKARGQAHQPSVYVLPPSREELSKNTVSLTCLIKDFFPPDIDVEWQSNGQQEPESKYRTTPPQLDEDGSYFLYSKLSVDKSRWQRGDTFICAVMHEALHNHYTQESLSHSPGK
notes: Homodimer; also called cIL-4Rα-cFc-YTE
B4: cIL-13Rα1-cIgGB-Fc-YTE (Fc fusion)
chain: GGVAAPTETQPPVTNLSVSVENLCTVIWTWDPPEGASPNCTLRYFSHFDNKQDKKIAPETHRSKEVPLNERICLQVGSQCSTNESDNPSILVEKCTPPPEGDPESAVTELQCVWHNLSYMKCTWLPGRNTSPDTNYTLYYWHSSLGKILQCEDIYREGQHIGCSFALTNLKDSSFEQHSVQIVVKDNAGKIRPSFNIVPLTSHVKPDPPHIKRLFFQNGNLYVQWKNPQNFYSRCLSYQVEVNNSQTETNDIFYVEEAKCQNSEFEGNLEGTICFMVPGVLPDTLNTVRIRVRTNKLCYEDDKLWSNWSQAMSIGENTDPTPKRENGRVPRPPDCPKCPAPEMLGGPSVFIFPPKPKDTLYITREPEVTCVVVDLDPEDPEVQISWFVDGKQMQTAKTQPREEQFNGTYRVVSVLPIGHQDWLKGKQFTCKVNNKALPSPIERTISKARGQAHQPSVYVLPPSREELSKNTVSLTCLIKDFFPPDIDVEWQSNGQQEPESKYRTTPPQLDEDGSYFLYSKLSVDKSRWQRGDTFICAVMHEALHNHYTQESLSHSPGK
notes: Homodimer; also called cIL-13Rα1-cFc-YTE
B5: cIL-13Rα2-cIgGB-Fc-YD (Fc fusion)
chain: SMLSNAEIKVNPPQDFEIVDPGYLGYLSLQWQPPLFPDNFKECTIEYELKYRNIDSENWKTIITKNLHYKDGFDLNKGIEAKINTLLPAQCTNGSEVRSSWAETTYWTSPQGNRETKIQDMDCVYYNWQYLVCSWKPGMGVHFDTNYQLFYWYEGLDHSAECTDYIKVNGKNMGCRFPYLESSDYKDFYICVNGSSESQPIRPSYFIFQLQNIVKPMPPDYLSLTVKNSEEINLKWNMPKGPIPAKCFIYEIEFTEDGTTWVTTTVENEIQITRTSNESQKLCFLVRSKVNIYCSDDGIWSEWSDEQCWKGDIWKETPKRENGRVPRPPDCPKCPAPEMLGGPSVFIFPPKPKDTLYIARDPEVTCVVVDLDPEDPEVQISWFVDGKQMQTAKTQPREEQFNGTYRVVSVLPIGHQDWLKGKQFTCKVNNKALPSPIERTISKARGQAHQPSVYVLPPSREELSKNTVSLTCLIKDFFPPDIDVEWQSNGQQEPESKYRTTPPQLDEDGSYFLYSKLSVDKSRWQRGDTFICAVMHEALHNHYTQESLSHSPGK
notes: Homodimer; also called cIL-13Rα2-cFc-YD
B6: cIL-13Rα2-cIgGB-Fc-YTE (Fc fusion)
chain: SMLSNAEIKVNPPQDFEIVDPGYLGYLSLQWQPPLFPDNFKECTIEYELKYRNIDSENWKTIITKNLHYKDGFDLNKGIEAKINTLLPAQCTNGSEVRSSWAETTYWTSPQGNRETKIQDMDCVYYNWQYLVCSWKPGMGVHFDTNYQLFYWYEGLDHSAECTDYIKVNGKNMGCRFPYLESSDYKDFYICVNGSSESQPIRPSYFIFQLQNIVKPMPPDYLSLTVKNSEEINLKWNMPKGPIPAKCFIYEIEFTEDGTTWVTTTVENEIQITRTSNESQKLCFLVRSKVNIYCSDDGIWSEWSDEQCWKGDIWKETPKRENGRVPRPPDCPKCPAPEMLGGPSVFIFPPKPKDTLYITREPEVTCVVVDLDPEDPEVQISWFVDGKQMQTAKTQPREEQFNGTYRVVSVLPIGHQDWLKGKQFTCKVNNKALPSPIERTISKARGQAHQPSVYVLPPSREELSKNTVSLTCLIKDFFPPDIDVEWQSNGQQEPESKYRTTPPQLDEDGSYFLYSKLSVDKSRWQRGDTFICAVMHEALHNHYTQESLSHSPGK
notes: Homodimer; also called cIL-13Rα2-cFc-YTE
B7: cIL-13Rα2-cIgGB-Fc (Fc fusion)
chain: SMLSNAEIKVNPPQDFEIVDPGYLGYLSLQWQPPLFPDNFKECTIEYELKYRNIDSENWKTIITKNLHYKDGFDLNKGIEAKINTLLPAQCTNGSEVRSSWAETTYWTSPQGNRETKIQDMDCVYYNWQYLVCSWKPGMGVHFDTNYQLFYWYEGLDHSAECTDYIKVNGKNMGCRFPYLESSDYKDFYICVNGSSESQPIRPSYFIFQLQNIVKPMPPDYLSLTVKNSEEINLKWNMPKGPIPAKCFIYEIEFTEDGTTWVTTTVENEIQITRTSNESQKLCFLVRSKVNIYCSDDGIWSEWSDEQCWKGDIWKETPKRENGRVPRPPDCPKCPAPEMLGGPSVFIFPPKPKDTLLIARTPEVTCVVVDLDPEDPEVQISWFVDGKQMQTAKTQPREEQFNGTYRVVSVLPIGHQDWLKGKQFTCKVNNKALPSPIERTISKARGQAHQPSVYVLPPSREELSKNTVSLTCLIKDFFPPDIDVEWQSNGQQEPESKYRTTPPQLDEDGSYFLYSKLSVDKSRWQRGDTFICAVMHEALHNHYTQESLSHSPGK
notes: Homodimer; also called cIL-13Rα2-cFc; cIL13Rα2-cFc

Assays:
canine IL-4 [1] = target: T1, canine IL-4; experiment: BLI (Octet); summary table, rounded from Table 3
canine IL-4 [2] = target: T1, canine IL-4; experiment: cell-based or functional assay
canine IL-4 [3] = target: T1, canine IL-4; experiment: BLI (Octet HTX), biotin-cIL-4 on SA biosensors, fusion protein in solution, 1:1 fit
Description: (§1) The binding constants for the cFc fusion proteins provided in Tables 3 and 4 below, were determined using OCTET® HTX. All kinetics measurements were performed by OCTET® HTX using SA® biosensors and DATA ACQUISITION® 12.0 software. 10 μg/mL of biotin-labeled antigen, either canine IL-4 (cIL-4) or canine IL-13 (cIL-13) were loaded onto the SAR biosensors for 120 seconds. Next, the biosensors were placed into 1×pH 7.0 TBS/Casein buffer for 60 seconds for the blocking phase. For the association phase, antigen loaded biosensors were placed into 2-fold serial dilutions from 1 μM down to 15.6 nM of the wild-type, the bispecific, or the FcRn-mutant receptor Fc-fusions that recognized the cIL-4 or cIL-13 antigen in 1×pH 7.0 TBS/Casein buffer for 30 seconds. The last well was buffer alone and that sensor was used for reference sensor subtraction. Finally, the biosensors were placed into 1×pH 7.0 TBS/Casein buffer for 120 seconds for the dissociation phase. The results were then analyzed using Data Analysis 12.0 software and the curves were fitted using a 1:1 binding model.

canine IL-4 [4] = target: T1, canine IL-4; experiment: cell-based or functional assay; remark: listed apart in the source
canine IL-4 [5] = target: T1, canine IL-4; experiment: BLI (Octet)
Description: as §1

canine IL-13 [6] = target: T2, canine IL-13; experiment: BLI (Octet)
Description: as §1

canine IL-13 [7] = target: T2, canine IL-13; experiment: BLI (Octet HTX), biotin-cIL-13 on SA biosensors, fusion protein in solution, 1:1 fit
Description: as §1

canine IL-13 [8] = target: T2, canine IL-13; experiment: cell-based or functional assay
canine IL-13 [9] = target: T2, canine IL-13; experiment: cell-based or functional assay; remark: listed apart in the source
canine IL-13 [10] = target: T2, canine IL-13; experiment: BLI (Octet); summary table, rounded from Table 4

| Binder | Kd (canine IL-4 [3]) [nM] | koff (canine IL-4 [3]) [s⁻¹] | kon (canine IL-4 [3]) [M⁻¹ s⁻¹] | Kd (canine IL-13 [7]) [nM] | koff (canine IL-13 [7]) [s⁻¹] | kon (canine IL-13 [7]) [M⁻¹ s⁻¹] | further results |
| --- | --- | --- | --- | --- | --- | --- | --- |
| B1 | 0.00118 | 8.3e-07 | 703000 | – | – | – | Kd (canine IL-4 [1]): 0.001 nM; IL-4 IC50 (inhibition of cIL-4 mediated STAT6 phosphorylation in DH82 cells) (canine IL-4 [2]): 0.084 nM; IL-4 (IC50), summary table (canine IL-4 [4]): 0.08 nM |
| B2 | 0.126 | 9.88e-05 | 785000 | – | – | – | fold change of KD against the unmodified cIL-4Rα-cFc homodimer (canine IL-4 [5]): ~100 fold |
| B3 | 0.0111 | 9.23e-06 | 830000 | – | – | – | fold change of KD against the unmodified cIL-4Rα-cFc homodimer (canine IL-4 [5]): ~10 fold |
| B4 | – | – | – | 16.5 | 0.0011 | 66500 | fold decrease in affinity against unmodified cIL-13Rα1-cFc (canine IL-13 [6]): ~4 fold |
| B5 | – | – | – | 0.00044 | 5.07e-07 | 1.15e+06 | fold decrease of KD against unmodified cIL-13Rα2-cFc (canine IL-13 [6]): ~2 fold |
| B6 | – | – | – | 0.000432 | 5.04e-07 | 1.17e+06 | fold decrease of KD against unmodified cIL-13Rα2-cFc (canine IL-13 [6]): ~2 fold |
| B7 | – | – | – | 0.000744 | 7.45e-07 | 1e+06 | IL-13 IC50 (inhibition of cIL-13 mediated STAT6 phosphorylation in DH82 cells) (canine IL-13 [8]): 0.165 nM; IL-13 (IC50), summary table (canine IL-13 [9]): 0.2 nM; Kd (canine IL-13 [10]): 0.0007 nM |
